Common to all, as to format: cell-based, human
For one test, the system named is PC-3 cells. Kind of test: RNASE4 knockdown, cell proliferation (Coulter counter). To be noted: PC-3, exogenous RNASE4 1 μg/ml. The source says: FIGS. 13A-D. RNASE4 knockdown reduces prostate cancer cell proliferation in vitro and colony formation in soft agar. (A) Immunoblot analysis of RNASE4 in PC-3 cells stably transfected with shControl, shRNASE4-1, and shRNASE4-2. (B) qRT-PCR analysis of RNASE4 mRNA normalized to GAPDH in PC-3 cells stably transfected with shControl, shRNASE4-1, and shRNASE4-2. (C) Effect of RNASE4 knockdown on cell proliferation. Cell numbers were counted by a Coulter counter. Exogenous RNASE4, when presented, was at the concentration of 1 μg/ml. Data shown are from representative experiment (in triplicates) of 3 independent repeats. (D) Effects of RNASE4 knockdown on colonies formation and growth of PC-3 cells in soft agar. The same numbers of control and RNASE4 knockdown cells were seeded in soft agar, and grown in the absence or presence of 1 μg/ml of RNASE4 for 14 days. Colonies were counted and size measured on a Nikon Eclipse ti microscope. Left panels, representative images of colonies; scale bars=100 μm. Right panels, quantification of colony numbers and sizes. Data shown are means±SEM from five randomly selected fields per dish from a representative experiment. *P≤0.05, **P≤0.01, and ***P≤0.001, by two-tailed Student's t test.
(§1) Lentiviral mediated shRNA system (pGIPZ, Open Biosystems) was used to generate control and RNASE4 knockdown cell lines. […]

The test system of test [1] is AKT and S6 phosphorylation in DU145 cells. As to the kind of experiment: RNASE4-induced phosphorylation of AKT and S6 (immunoblot). To be noted: serum-starved DU145, RNASE4 1 μg/ml, time course. The procedure: FIGS. 10A-E. RNASE4 induces prostate cancer cell proliferation and phosphorylation of AKT and S6. (A and B) Exogenous RNASE4 (1 μg/ml) stimulates cell proliferation (A) and cell cycle progression (B) of DU145 cells cultured in the presence of 2% FBS. Cell numbers were determined by MTT assay. Cell cycle status was determined by flow cytometry after 24 hour incubation with RNASE4. (C) Time course of AKT and S6 phosphorylation of serum-starved DU145 cells by RNASE4 (1 μg/ml). Left panels, immunoblots; right panels, quantification of p-AKT and p-S6 normalized to total AKT and S6 by Image J analysis. […] Cells were pre-incubated with the inhibitors at the indicated concentrations for 1 hour prior to be stimulated by 1 μg/ml of RNASE4 for 5 minutes. Top panels, immunoblots; bottom panels, Image J quantification of p-AKT and p-S6 normalized to total AKT and S6. (E) Effect of AKT inhibitor MK-2206, PI3K inhibitors Wortmannin and LY294002, and mTOR inhibitor Rapamycin on RNASE4-induced cell proliferation. DU145 cells were serum-starved overnight, incubated with the inhibitors for 1 hour, and then treated with RNASE4 (1 μg/ml) for three days. Cell numbers were determined by MTT assay. Data shown are from a representative experiments in triplicates of 3 independent repeats. Error bars indicate SEM. **P≤0.01, by unpaired two-tailed Student's t test.
FIGS. 12A-F. RNASE4 induces AXL phosphorylation. (A) Human phospho-receptor tyrosine kinase (RTK) antibody array analysis. Serum-starved DU145 cells were treated with or without 1 μg/ml of RNASE4 for 5 minutes. A total of 1.5 mg cell lysate protein was blotted on each array membrane. […] (B) Immunoblot analysis of RNASE4-stimulated AXL phosphorylation. DU145 cells were serum-starved overnight and treated with 1 μg/ml of RNASE4 for the indicated time. Cell lysates were analyzed by antibodies against total AXL and phospho-AXL, with β-actin as the loading control. Left panels, immunoblots; right panel, Image J quantification of p-AXL normalized to total AXL. (C) Immunoblot analysis of phospho-AXL in response to stimulation by ANG, RNase A, and RNASE4. DU145 cells were serum-starved overnight and treated with 1 μg/ml of ANG, RNase A, or RNASE4 for 15 minutes. Left panels, immunoblots; right panel, quantification. (D) Effect of AXL inhibitor R428 on RNASE4-induced cell proliferation. Serum-starved DU145 cells were incubated with 1 or 3 μM R428 for 3 hours and then stimulated by 1 μg/ml of RNASE4 for 3 days. Cell numbers were determined by MTT assay. Data shown are means±SEM of a representative experiment (in triplicates) of 3 independent repeats. **P≤0.01 and ***P≤0.001, by unpaired two-tailed Student's t test. (E) Effect of AXL inhibitor R428 on RNASE4-induced AKT and P6 phosphorylation. Serum-starved DU145 cells were incubated with 1 or 3 μM R428 for 3 hours and then stimulated by 1 μg/ml of RNASE4 for 5 minutes. Cell lysates were analyzed for AKT and P6 phosphorylation by immunoblotting. Top panels, immunoblots; bottom panels, quantification of phospho-AKT and phospho-S6 by Image J analyses normalized to total AKT and P6, respectively. (F) Schematic presentation of proposed involvement of AXL in RNASE4-stimulated cellular events.
For orientation: A western blot detects proteins with antibodies after separation by electrophoresis.

The test system of another test is DU145 cells. Kind of test: RNASE4 knockdown, cell proliferation (Coulter counter). The note with it: DU145, exogenous RNASE4 1 μg/ml.
Text: FIGS. 14A-D. RNASE4 knockdown inhibits DU145 cell proliferation in vitro and colony formation in soft agar. (A) Immunoblot analysis of RNASE4 in DU145 cells stably transfected with shControl, shRNASE4-1, and shRNASE4-2. (B) qRT-PCR analysis of RNASE4 mRNA normalized to GAPDH in DU145 cells stably transfected with shControl, shRNASE4-1, and shRNASE4-2. (C) Effect of RNASE4 knockdown on cell proliferation. Cell numbers were counted by Coulter counter. Exogenous RNASE4, when presented, was at the concentration of 1 μg/ml. Data shown are from a representative experiment in triplicates of 3 independent experiments. (D) Effects of RNASE4 knockdown on colonies formation and growth of DU145 cells in soft agar. The same numbers of control and RNASE4 knockdown cells were seeded in soft agar, and grown in the absence or presence of 1 μg/ml of RNASE4 for 14 days. Colonies were counted and size measured on a Nikon Eclipse ti microscope. Top panels, representative images of colonies; scale bars=100 μm. Bottom panels, quantification of DU145 cell colonies and sizes in soft agar. Data shown are means±SEM of five randomly selected fields per dish from a representative experiment. **P≤0.01 and ***P≤0.001, by two-tailed Student's t test.
as §1

B1: RNASE4: recombinant human RNASE4 protein from pET11 expression in E. coli, purified by reversed-phase HPLC; added exogenously (protein, UniProt P34096 29-147, looked up)
Ribonuclease 4: QDGMYQRFLRQHVHPEETGGSDRYCNLMMQRRKMTLYHCKRFNTFIHEDIWNIRSICSTTNIQCKNGKMNCHEGVVKVTDCRDTGSSRAPNCRYRAIASTRRVVIACEGNPQVPVHFDG
On to B1, for which the “rescue of the effect of RNASE4 knockdown on cell proliferation” value in the test with PC-3 cells and in the test on DU145 cells was “able to rescue” in each case. In addition, the “activation (phosphorylation) of AKT and S6” value in test [1] was “rapidly and continuously activated”.

The values are drawn from patent publication US11739161B2, “Methods for treating and diagnosing prostate cancer” (Tufts Medical Center, Inc., priority 2017, dated 2023).
